This is an account of results in FireProtDB (doi:10.1021/bi00017a003).

For the series the following is noted: Hordeum vulgare; pH 6.3; 25 °C; GdnHCl; Fluorescence; MES 50 mM; whole UniProt chain shown.

B1: Subtilisin-chymotrypsin inhibitor-2A wild type, P01053 (protein)
chain: MSSVEKKPEGVNTGAGDRHNLKTEWPELVGKSVEEAKKVILQDKPEAQIIVLPVGTIVTMEYRIDRVRLFVDKLDNIAQVPRVG
For B1, the denaturant m value is 1.9 kcal/mol/M and the “denaturant midpoint (higher = more stable)” value amounted to 4 M.
